Source: publication PMC10308189 (Bio-protocol, 2023)

Target: the molecule itself
Assay: SEC

B1: human amphiphysin 1 N-BAR domain (1-247) (domain or fragment, UniProt P49418 1-247, looked up)
chain: MADIKTGIFAKNVQKRLNRAQEKVLQKLGKADETKDEQFEEYVQNFKRQEAEGTRLQRELRGYLAAIKGMQEASMKLTESLHEVYEPDWYGREDVKMVGEKCDVLWEDFHQKLVDGSLLTLDTYLGQFPDIKNRIAKRSRKLVDYDSARHHLEALQSSKRKDESRISKAEEEFQKAQKVFEEFNVDLQEELPSLWSRRVGFYVNTFKNVSSLEAKFHKEIAVLCHKLYEVMTKLGDQHADKAFTIQG
**Q.** For B1, which “stoichiometry N” value is on record?
**A.** 2
